In the nanobody polyreactivity screen of Harvey et al. (2022):

Experiment: yeast display, Sf9 membrane polyspecificity reagent, FACS + sequencing; frameworks hold sequencing errors
Outline: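 Galactose-induced (36–48 hours) yeast carrying a synthetic nanobody display library were exposed to 10% biotinylated, detergent-solubilized Sf9 membrane reagent at 4 °C for 1 hour. FACS followed streptavidin microbead enrichment, using low and high (top ~1%) gates for expression (anti-HA) and reagent binding (streptavidin). Colony PCR, MiSeq 2 × 250 sequencing and CDR-length filtering followed. Labels for polyreactivity reflect the gate of origin.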

Sequence | polyreactivity (PSR sort gate)
QVQLVESGGGLVQAGGSLRLSCAASGSIFGPNAMGWYRQAPGKERELVAAITSGSSTKYADSVKGRFTISRDNATNTVYLQMNSLKPEDTAVYYCAASGTSTWKYGYWGQGSQVTVSS | low polyreactivity
QVQLVESGGGLVQAGGSLRLICAASGRIFYINAMGWYRQAPGKERELVASITGSGGRTYYADSVKGRFTISRDNAKNTVYLQMNSLKPEDTAVYYCNADLYVGYLYYLYDYWGQGTQVTVSS | low polyreactivity
QVQLVESGGGLVQAGGSLRLSCAASGSTFYPYAMGWYRQAPGKEREFVAAISGRGGSTFYADSVKGRFTISRDNAKNTVYIQMNSLKPEDTAVYYCAASVFKLVGYDYWGQGTQVTLSS | high polyreactivity
QVQLVDSGGGLVQAGGSLRLSCAASGNIFTSYARGWYRQAPGKERELVAAISSGGRTSYADSVKGRFTISRDNAMNTVFLQMNSLKPDYTAVYYCAAYYRRWPREYYYWGQGTQVSVSS | high polyreactivity
QVQLVESGGRLVQAGGSLRLSCAASGRTFVTNAMGWYRQAPGQERELVAAISSNGGSTYYADSVKGRFTISRDNAKNTVYLQMNSLKPEDTAVYYCNAEGQPLYVSWHDHRYIYGFDYWGQGTQVTVSS | low polyreactivity
QVQLVESGGGLVQAGGSLRLSCAASGRTFVPYAMGWYRQAPWKERELVASISSSGGSTYYADSVKGRFTISRDNAKNTVYLQMNSLKPEDTAVYYCATADRWSSSYYRSVRWYHYDYWGQGTQVTVSS | low polyreactivity
QVQLVESGGGLVQAGGRLRISSAASGFIFYVNAKGWYRQAPGKERELVAAISWSGGSTYYADSVKGRFTISRDNAKNTVYLQMNSLKPEDPAFYYCAAGASPYEGYDNWGQGTQVTVSS | low polyreactivity
QVQLVESGGGLVQAGGSLRLSCAASGFTLRYYAMGWYRQAPGKERELVADISWSGGRTYYADSVKGRFTISRDNAKNTVYLQMNSLKPEDTAVYYCAAVRYYAHVYKSVGYDYWGQGTQVTVSS | high polyreactivity
QVQLVESGGGLVQSGGSLRLSCAASGGSFTFYAMGWYRQAPGKERELVATINWSGGSTYYADSVKGRFTISRDNAKNTVYLQMNSLKPEDTAVYYCNAAWPYKSVEYWGQGTQVTVSS | low polyreactivity
QVQLVESGGGLVQAGGSLRLSCAASGFIFAWYAMGWYRQAPGKEREMVAAITSGGRTYYADSVKGRFTISRDNAKNTVYLQMNSLKPEDTAVYYCATDAVASHRPYKYGPQSGSWGQGTQVTVSS | high polyreactivity
QVQLVESGGGLLQAGRSLRLSCAASGSIIWLYAMGWYRQAPGKERELVAAISWTGTSTNYADSVKGRFTISRDYAKNTVYLQMNSLKPEDTAVYYCAKRWYNQKLFGYEDEYDYWGQGTQVTVSS | low polyreactivity
QVQLVESGGGLVQAGGSLRLSCAASGRILGRKAMGWYRHAPGKEREYVAAISSGGNTYYADSVKGRFTISRDNAKNTVYLQMKSLKPEDTAVYYCNADPDTYVSTITHDSWGQGTQVTVSS | low polyreactivity
QDQLVESGGGLVQAGGSLRLSCAASGITVDGYAMGWYRQAPGKDRELVAAITTSGGRTYYADSVKGRFTISRDNAKNTVYLQMNSLKPEHTADYYCNAVRGGRYGLDYWGQGTQVTVSS | high polyreactivity
QVQLVESGGGLVQAGGSLRLSCAASGSTFWYAMGWYRQAPGKERELVAAITARGGRTYYADSVKGRFTISRDNAKHTVYLQLISLKPEDTAVYYCARLSYAGGQWIIGKYDYWGQGTQVTVSS | high polyreactivity
QVQLVESGGGLVQAGGSLRLSCAASGRIFSWYAMGWYRQAPGKERELVAAITVRGSTYYADSVKGRFTISRDNAKNTVYLQMNSLKPEDTAVYYCAAKSSRYAYDYWGQGTQVTVSS | low polyreactivity
QVQLVESGGGLVQAGGSLRLSCAASGRTLYRYAMGWYRQAPGKERELVAVISWNAVGTYYADSVKGRFTISRDNAKNTVYLQMNSLKPEDTAVYYCAARKRVASQGYIRYNYWGQGTQVTVSS | high polyreactivity
QVQLVESGGGLVQAGGILRLSCAASGFTFLAYAMGWYRQAHGKERELVAAISAYSGRTRYADSVKGRFTISRDNAKNTVYLQMNSLKPEDTAVNYCAARYRGTYRRDYWGQGTQVTVSS | high polyreactivity
QVQLVESGGGLVQAGGSLRLSCAASGSTFDVYDMGWYRQAPGKERELVASISWDGDRTYYADSVKGRFTISRDNAKNTVYLQMNSLKPEDTAVYYCAVDSASDTIYDYWGQGTQVTVSS | low polyreactivity
QVQLVESGGGLVQARGSLRLSCAASRLIFTWYAMRWSRHAPGKERELVAAISWSDDSTNYADSVKGRFTISRDNAKNTVYLLMNSLKPEDTAVYYCATQLDYGGRVGDADDYWGQGTQVTVSS | low polyreactivity
QVQLVESGGGLVQAGGSLRLSCAASGRTFVSYAMGWYRQAPGKERELVAAISSSGGSTYYADSVKGRFTISRDNAKNTVYLQMNSLKPEDTAVYYCAADTTTRAYVEMDYWGQGTQVTVSS | low polyreactivity
QVQLVESGGGLVQAGGSLRLSCAASGLIFGRYAMGWYRPAPGKERELVAAITNSDGDTYYADSVKGRFTISRDNAKNTVYLQMNSLKPEDTAVYYCNADDALRQTSDYNYWGQGTQVTVSS | low polyreactivity
QVQLVQSGGGLFQAGGSLRLSCAASGRTFWSNAMGWYRQAPGKERELVADITFSGGRTYYADSVKGRFTISRDNAKTSVYLQMNRLKPEDTAVYYCSSSATPSGVGMDYWGQGTQVTVSS | low polyreactivity

Sequence | polyreactivity (PSR sort gate)
QVQLVESGAGLDQAGCSLRISCAASGRIFWFYTMGWYRQAPWKERELVAAISTSGGSTYYADSVKGRFTISRDNEKNTVYLQMNSLKPDDTAVYYCAAQNGYYPQHDYWGQGTQVTVSS | high polyreactivity
QVQLVESGGGLVQAGGSLRLSCAASGFTFYSYAMGWYRQAPGKERELVAVISKRGGSTRYADSVKGRFTISRDNAKNTVYLQMNSLKPEDTAVYYCNADQHSITYNEFDYWGQGTQVTVSS | low polyreactivity
QVQLVESGGGLVQAGGSLRLSCAASGSTFNEYVMGWYRQAPGKERELVAAITGGGGRTYYADSVKGRFTISRDNAKITVYLQMNSQKPEDTAFYDCAKRYLYGTYWGFFRYDYWGQGTQVTVSS | low polyreactivity
QDKLVESGGGLVQAGGSLRLSCAPSGSIFYGYAMGWYRQAPGKESELVAAMSSTGGTTYYADSVKGRFTISRDNAKNTVYLQMNSQKPEDTAVYYCAKRGRTWRYPFDYWGQGTQVTVSS | high polyreactivity
QVQLVESGGGLVQAGGSLRLSCAASGFTFSRNVMGWYRQAPGKERELVADITLSGASTYYADSVKARFTISRDNAKNTVYLQMNSLKPEDTSVYSCAADPYHWRWGWRHDYWGQGTQVTVSS | low polyreactivity
QVQLVESGGGLVQAGGSLRLSCAASGYTFYFYAMGWSRQAPGKERELVAAITGGGTTSYADSVKGRFTISRDNAKNTVYLQMNSLKPEDTAVYYCNVLFADKSDYWGQGSQVTVSS | low polyreactivity
QVQLVESGGGLVHAGGSLRLSCAAYGSTFVRNAMGCYRQAPGKERELVAAITSRGGSTYYADSVKGRFTISRDNAKNTVYLQMNSLKPEDTAVYYCAARFGVKRGQYDYWGQGTQVTVSS | high polyreactivity
QVQLVESGGGLVQAGGSLRLSCAASGFTFYRYAMGWYRQAPGKERELVAAITWSGGSTYYADSVKGRFTISRDNAKNTVYLQMNSLKPVDTAVYYCAADIYDGGFDYWGQGTQVTVSS | low polyreactivity
QVQLVESGGGLVQAGGSLRLSCAASGRIFWYNAMGWYRQAPGKERELVAVISTRGGRTYYADSVKGRFTISRDNAKNTVYLQMNSLKPEDTAVYYCAAEFLNKAVGGVTSIYDSWGQGTQVTVSS | low polyreactivity
QVQLVESGGGLVQAGGSLRLSCAASGSILYINAMGWYRQAPGKERELVAAITYSGGSTYYADSVKGRFTISRDNAKNTVYLQMNSLKPEDTAVYYWAADAVVAGRYDGHDYWGQGTQVTVSS | low polyreactivity
QVQLVESGGGLVQAGGSLRLSCAASGFTFFTNAMGWYRQAPGKEREFVAAISKSGSRTYYADSVKGRFTISRDNAKNTVYLQMNSLKPEDTAVYYCAAGYVTLFGFYRYYLWGQGTQVTVSS | high polyreactivity
QVQLVESGGGLVQAGGSLRLSCAASGFTFYHNAMGWYRQAPGKERELVAAISGGGDSTYYADSVKGRFTISRDNAKNTVYLQMNSLKPEDTAVYYCATRRYPEVVNGEYGYWGQGTQVTVSS | low polyreactivity
QVQLVESWGGVVQAGGSLRLSCAASGRIFQHYAMGWYRQAPGKERELVAAISWRGGSTYYADSVKGRFTISRDNAKNTVFLQMNSLKPEDTAVYYCAAGYRGRIPGFDYWGQGTQVTVSS | high polyreactivity
QVQLVESGGGLVQAGGSLRLSCAASGFTICTYAMGWYRQAPGKERELVAAIDSGGSTYYADSVMGRFTISRDNAKTTVYLQMNSLKPEDTAVYYCNAGPSVTSGYDYDYWGQGTQVTVSS | low polyreactivity
QVQLVESGGGLVQAGGSLRLSCAASGSTFHYYARGWYRQAPGKERELVAAISQSGSGTYYADSVKGRFTISRDYAKNTVYLQMNSLKPEDTAVYYCAKDITGLSRYRRDYWGQGTQVTVSS | low polyreactivity
QVQLVESGGGLVQAGGSLRLSCAASGRTFTNNVMGWYRQAPGKERELVAAITSGGTNYADSVKGRFTISRDNAKNTVYLQMNSLKPEDTAVYYCATDYYDEVTIGYDYWGQGTQVTVSS | low polyreactivity
QVQLVEAGGGLVQAGGSLRLSGAASGFTLYANAMGWYRQAPGKERELVADISVSGSSTAYADSVKGRFTISRDNAKNTVYLQMNSLKPEDTAVYYCNADQGTRDSDYWGQGTQVTVSS | low polyreactivity
QVQLVESGGGLVQAGGSLRLSCAASGSTFLRYAMGWYRQAPGKERELVATISRSDDGTYYADSVKGRFTISRDNAKNTVYLQMNSLKPEDTAVYYCAARSWYLYYYWGQGTQVTVSS | low polyreactivity
QVQLVESGGGLVQARGSLSLSCAASGSIFYYNAIGWYRQPPGKERELVATITSAVSTNYADSVKGRFTISRANAKNPVYLQMNSLKPEDTAVYYCAADDYQVQYDYWGQGTQVTVSS | low polyreactivity
QVQLVESGGGLVHAGGSLRLSCAASGRTFAGNVMGWYIQAPGKEREFVAAISLSGGNTYYADSVKGRFTISRDNAKNTVYLQMNSLKPEDTAVYYCAADYEYSGYGYWGQGTQVTVSS | high polyreactivity
QVQLVESGGGLVQAGGSLRLSCAASGSTFATNAMGWYRQAPGKERELVATISSDGSTNYADSVKGRFTISRDNAKNTVYLQMNSLKPEDTAVYYCATEVTYPWHVDEGDYWGQGTQVTVSS | low polyreactivity
